How the values were obtained:
ALPP [1] = molecular target: T1, ALPP (Homo sapiens, UniProt P05187); experiment: Epitope binning by BLI competition assay; assay type: binding; conditions: BLI competition on immobilised ALPP
Description: To determine epitope cross reactivity BLI competition assays were conducted. AR2G sensors were used and ALPP immobilised as above. ALPP sensors were then dipped into a well containing a saturating concentration of the initial binder for ten minutes to get an association curve. The sensor was then dipped into a well containing the same concentration of initial binder plus 20 nM of a secondary binding.
An increase in the association curve was indicative that the second VHH bound to a distinct epitope from the initial binder. Monomers with identical CDR3s were grouped as likely to be in the same epitope bin and only one from each group used in the epitope binning experiment.

ALPI His homodimer = molecular target: T2, ALPI His homodimer (Homo sapiens, UniProt P09923); experiment: ELISA binding to ALPI; conditions: 500 ng purified VHH
T2 sequence (P09923 with tags, fused parts or gaps): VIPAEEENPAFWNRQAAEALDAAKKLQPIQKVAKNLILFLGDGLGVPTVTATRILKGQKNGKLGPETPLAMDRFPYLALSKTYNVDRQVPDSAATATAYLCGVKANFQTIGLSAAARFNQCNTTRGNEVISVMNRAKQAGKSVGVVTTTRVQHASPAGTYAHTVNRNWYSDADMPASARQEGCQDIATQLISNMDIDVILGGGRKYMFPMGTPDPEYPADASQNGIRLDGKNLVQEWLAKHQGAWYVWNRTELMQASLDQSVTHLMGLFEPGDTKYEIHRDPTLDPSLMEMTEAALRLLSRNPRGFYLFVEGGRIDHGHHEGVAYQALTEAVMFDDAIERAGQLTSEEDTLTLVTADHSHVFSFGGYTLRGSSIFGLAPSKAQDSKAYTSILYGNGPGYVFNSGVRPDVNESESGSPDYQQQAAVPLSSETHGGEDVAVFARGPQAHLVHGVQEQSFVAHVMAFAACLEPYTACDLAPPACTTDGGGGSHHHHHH
Description: ELISA was used to test the binding and specificity of the VHHs. ALPP CysHis (SEQ ID NO: 263), ALPI His homodimer (SEQ ID NO: 264) or BSA (Thermo Fisher) were coated onto plates and 500 ng of each purified VHH added. Anti-Llama—HRP antibody was used for detection.

[2] = Thermal stability (Protein Thermal Shift assay); assay type: physicochemical; conditions: VHH domains, first derivative analysis
Description: Thermal stability assays used Applied Biosystems StepOne Real Time PCR system with the Protein Thermal Shift™ dye kit (Thermo Fisher). The assay mix was set up so that the protein was at a final concentration of 20 µM in 20 μL. 5 μL of Thermal Shift™ buffer was added alongside 2.5 μL 8× Thermal Shift™ Dye. Assays were run using the StepOne software and data analysed using Protein Thermal Shift™ software. All data are from first derivative analysis.

ALPP [3] = molecular target: T1, ALPP; experiment: BLI binding kinetics, human ALPP immobilised on AR2G sensors (KD / KD apparent); conditions: for hALPP Ka / hALPP Kd: VHH domains
Description: Binding kinetics were determined using the Biolayer Interferometry (BLI) Octet K2 system (Sartorius). Human ALPP, ALPPL2, ALPL (each fused with a cysteine stabilised leucine zipper) and ALPI, (SEQ ID NO: 265, SEQ ID NO: 266 and SEQ ID NO: 267 and SEQ ID NO: 264 respectively) were immobilised in sodium acetate pH5 buffer to AR2G sensors using amine coupling. All assays were conducted in PBS with a plate temperature of 25° C. Ka (M^−1s^−1), Kd (s^−1) and KD (nM) values were determined using Octet Data Analysis High Throughput software (ForteBio) for Biolayer Interferometry.
(§1) Binding kinetics were determined using the Biolayer Interferometry (BLI) Octet K2 or R4 system (Sartorius). Human ALPP, ALPPL2 and ALPL all fused with a disulphide stabilised leucine zipper (SEQ ID NO: 265, SEQ ID NO: 266, and SEQ ID NO: 267) and ALPI His (SEQ ID NO: 264) were used in BLI experiments. For KD apparent measurements, the ALPP proteins were immobilised in sodium acetate pH5 buffer to AR2G sensors using amine coupling. To measure 1:1 interactions, AHC biosensors were used to immobilise Fc-fused proteins. All assays were conducted in HBS-EP with a plate temperature of 25° C. Ka (M^−1s^−1), Kd (s^−1) and KD (nM) values were determined using Octet Data Analysis High Throughput software (Sartorius) for Biolayer Interferometry.
as §1, with “NO:264)” for “NO: 264)”

T1 sequence (P05187 with tags, fused parts or gaps): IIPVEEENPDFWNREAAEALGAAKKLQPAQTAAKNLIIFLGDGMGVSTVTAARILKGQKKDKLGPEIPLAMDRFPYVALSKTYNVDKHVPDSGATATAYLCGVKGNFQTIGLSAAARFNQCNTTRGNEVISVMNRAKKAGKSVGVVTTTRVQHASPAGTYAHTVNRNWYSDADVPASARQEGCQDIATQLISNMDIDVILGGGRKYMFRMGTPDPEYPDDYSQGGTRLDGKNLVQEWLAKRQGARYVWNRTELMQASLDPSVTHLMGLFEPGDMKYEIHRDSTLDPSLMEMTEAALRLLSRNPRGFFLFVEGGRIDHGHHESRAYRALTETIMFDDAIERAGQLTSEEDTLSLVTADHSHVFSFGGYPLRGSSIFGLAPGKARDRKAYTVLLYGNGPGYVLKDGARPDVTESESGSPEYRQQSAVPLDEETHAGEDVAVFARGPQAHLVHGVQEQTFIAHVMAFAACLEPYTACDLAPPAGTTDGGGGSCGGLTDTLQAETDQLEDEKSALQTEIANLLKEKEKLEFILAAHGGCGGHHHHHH

B1: B09: ALPP targeting VHH domain, SEQ ID NO: 21 (protein)
VHH: QVQLVESGGGSVQAGGSLRLSCAASGPSLSHYAMGWFRQAPGKEREFVAGISWGGGRTSYTDSVKGRFTISRDNAKNTVYLQMNNLKPEDTGVYYCAGRYGRGRNVEYEYDYWGQGTQVTVSS
With B1 the epitope bin (ALPP [1]) was “one”, the “ELISA hALPI” value (ALPI His homodimer) was “No Binding” and the Tm [2] was 77.1 °C. The “hALPP Ka” value (ALPP [3]) was 237000 M⁻¹ s⁻¹ and the “hALPP Kd” value (ALPP [3]) was <1e-07 s⁻¹.

B2: B11: ALPP targeting VHH domain, SEQ ID NO: 22 (protein)
VHH: QVHLVESGGGSVQAGGSLRLSCAASGPSLSNYAMGWFRQAPGKEREFVAGISWGGGRTSYTDSVKGRFTISRDNAKNTVYLQMNNLKPEDTGVYYCAGRYGRGRNVEYEYDYWGQGTQVTVSS
With B2 the epitope bin (ALPP [1]) was “one”, the “ELISA hALPI” value (ALPI His homodimer) was “No Binding” and the Tm [2] was 77.4 °C. For the same molecule, the “hALPP Ka” value (ALPP [3]) was 213000 M⁻¹ s⁻¹ and the “hALPP Kd” value (ALPP [3]) was 0.000017 s⁻¹.

B3: G03: ALPP targeting VHH domain, SEQ ID NO: 38 (protein)
VHH: QVQLVESGGGTAQAGGSLRLACAASGRSVTMGWLGWVPRAERDDLEFITWFNWGTYYANSVNGRFTISTDNADNTVYPQMNRLKPENPAVYYCASFTGYRPLINRLNDVSDCGHGALVAVSS
In the case of B3, the epitope bin (ALPP [1]) is reported as “one”, the “ELISA hALPI” value (ALPI His homodimer) is reported as “No Binding” and the Tm [2] is reported as 74.0 °C. The “hALPP Ka” value (ALPP [3]) was 47400 M⁻¹ s⁻¹, the “hALPP Kd” value (ALPP [3]) was <1e-07 s⁻¹ and the Kd (ALPP [3]; VHH domains (His-tagged monomers), PBS, 25° C., read-out: hALPP KD) was < 0.01 nM.

From patent publication US20260216242A1, “ALPP-SPECIFIC VARIANT ANTIGEN BINDING MOLECULES” (ALMAC DISCOVERY LIMITED, priority 2022, published 2026)
